The text below walks through data of the supplement of paper PMC9112550, “Optimization of the antimicrobial peptide Bac7 by deep mutational scanning” (BMC Biology, 2022).
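Also: peptides expressed intracellularly from a pBAD plasmid library in pooled LB shake-flask culture, induced with 0.3% L-arabinose, DNA abundance read by NGS, three biological replicates, DESeq2 with apeglm shrinkage.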

This series concerns Escherichia coli TOP10. Kind of series: shrunken log2 fold change of peptide-encoding DNA abundance (4.5 h post-induction vs induction); higher = less antimicrobial activity (less host growth inhibition). The conditions noted are these: time post-induction: 4.5 h; library: site-saturation at positions 5, 18, 19, 20.
With RRIRERPPRLPRPRPRPNMMPRP, the “shrunken log2 fold change” value is -0.612. As to RRIRGRPPRLPRPRPRPVQIPRP, the “shrunken log2 fold change” value was determined as 0.335. Turning to RRIRWRPPRLPRPRPRPRQEPRP, the “shrunken log2 fold change” value stood at 0.0591.

Consider RRIRERPPRLPRPRPRPTVKPRP, for which the “shrunken log2 fold change” value is -0.218. Under RRIRERPPRLPRPRPRPNEPPRP stands -0.129; under RRIRYRPPRLPRPRPRPREPPRP, 0.419.

As for RRIRVRPPRLPRPRPRPKKDPRP, the “shrunken log2 fold change” value is -0.262. The same measure for RRIRQRPPRLPRPRPRPACGPRP: 0.217.

Take RRIRWRPPRLPRPRPRPPGPPRP: the “shrunken log2 fold change” value amounted to 0.599.

As for RRIRFRPPRLPRPRPRPEWHPRP, the “shrunken log2 fold change” value was -0.28. The same measure for RRIRVRPPRLPRPRPRPCYYPRP: -0.147. Under RRIRQRPPRLPRPRPRPSQYPRP stands -0.244; under RRIRKRPPRLPRPRPRPKMHPRP, 0.483. Under RRIRGRPPRLPRPRPRPYLKPRP stands -0.0688; under RRIRPRPPRLPRPRPRPETAPRP, 0.396; under RRIRARPPRLPRPRPRPNLFPRP, -0.0329.

For RRIRPRPPRLPRPRPRPTPSPRP, the “shrunken log2 fold change” value was 0.312. Under RRIRHRPPRLPRPRPRPRCNPRP stands -0.331; under RRIRERPPRLPRPRPRPLKIPRP, -0.402. The same measure for RRIRSRPPRLPRPRPRPPPEPRP: 0.852. Under RRIRARPPRLPRPRPRPPHVPRP stands 0.805; under RRIRIRPPRLPRPRPRPVEDPRP, -0.158.

On to RRIRMRPPRLPRPRPRPFHLPRP, for which the “shrunken log2 fold change” value was -0.0432.

Turning to RRIRARPPRLPRPRPRPVPHPRP, the “shrunken log2 fold change” value was 0.0133. The same measure for RRIRMRPPRLPRPRPRPEHNPRP: 0.465; for RRIRVRPPRLPRPRPRPFVCPRP: -0.744. The same measure for RRIRNRPPRLPRPRPRPPLVPRP: 0.089; for RRIRVRPPRLPRPRPRPEMGPRP: 0.104. Under RRIRVRPPRLPRPRPRPDAIPRP stands 0.286; under RRIRHRPPRLPRPRPRPFTPPRP, -0.484; under RRIRLRPPRLPRPRPRPRRMPRP, 0.053. With RRIRFRPPRLPRPRPRPHCTPRP, the “shrunken log2 fold change” value is -0.268. As to RRIRMRPPRLPRPRPRPERIPRP, the “shrunken log2 fold change” value was 0.0158.

As for RRIRFRPPRLPRPRPRPCYWPRP, the “shrunken log2 fold change” value was -0.0974.

Consider RRIRFRPPRLPRPRPRPNSIPRP, for which the “shrunken log2 fold change” value is -0.216.

On to RRIRSRPPRLPRPRPRPQWHPRP, for which the “shrunken log2 fold change” value was -0.26. In the case of RRIRFRPPRLPRPRPRPLPIPRP, the “shrunken log2 fold change” value turned out to be 0.165. Consider RRIRSRPPRLPRPRPRPMEQPRP, for which the “shrunken log2 fold change” value was -0.00992.

Regarding RRIRVRPPRLPRPRPRPPNKPRP, the “shrunken log2 fold change” value was -0.0216. With RRIRMRPPRLPRPRPRPRYLPRP, the “shrunken log2 fold change” value was -0.0395. The same measure for RRIRWRPPRLPRPRPRPNCFPRP: -0.0571; for RRIRSRPPRLPRPRPRPCFEPRP: -0.0192.

RRIRCRPPRLPRPRPRPMCRPRP: the “shrunken log2 fold change” value was -0.274. Under RRIRSRPPRLPRPRPRPIQSPRP stands -0.0288; under RRIRSRPPRLPRPRPRPSYCPRP, -1.07. Under RRIRDRPPRLPRPRPRPNSQPRP stands -0.283; under RRIRRRPPRLPRPRPRPHIFPRP, -0.019; under RRIRWRPPRLPRPRPRPMYNPRP, -0.387. With RRIRPRPPRLPRPRPRPYTHPRP, the “shrunken log2 fold change” value was -1.35. The same measure for RRIRDRPPRLPRPRPRPNSRPRP: -0.0447. RRIRTRPPRLPRPRPRPSHSPRP: the “shrunken log2 fold change” value is -0.399. In the case of RRIRCRPPRLPRPRPRPQSMPRP, the “shrunken log2 fold change” value was -0.419. In the case of RRIRARPPRLPRPRPRPGDMPRP, the “shrunken log2 fold change” value is 0.374. With RRIRQRPPRLPRPRPRPHHLPRP, the “shrunken log2 fold change” value was -0.122. As for RRIRIRPPRLPRPRPRPGYGPRP, the “shrunken log2 fold change” value is -0.309.

Turning to RRIRDRPPRLPRPRPRPVEYPRP, the “shrunken log2 fold change” value is 0.0163. The same measure for RRIRERPPRLPRPRPRPNTDPRP: -0.554; for RRIRPRPPRLPRPRPRPMPNPRP: 0.156; for RRIRRRPPRLPRPRPRPNVYPRP: 0.0361. Turning to RRIRVRPPRLPRPRPRPHLTPRP, the “shrunken log2 fold change” value is -0.333. Under RRIRFRPPRLPRPRPRPWSPPRP stands -0.491; under RRIRMRPPRLPRPRPRPMYWPRP, -0.169. Regarding RRIRTRPPRLPRPRPRPGGDPRP, the “shrunken log2 fold change” value is 0.46.

With RRIRRRPPRLPRPRPRPSGQPRP, the “shrunken log2 fold change” value turned out to be 0.306. Under RRIRERPPRLPRPRPRPTDHPRP stands -0.251; under RRIRDRPPRLPRPRPRPNVPPRP, 0.0123; under RRIRSRPPRLPRPRPRPWCQPRP, -0.119. The same measure for RRIRDRPPRLPRPRPRPLSYPRP: 0.194; for RRIRERPPRLPRPRPRPIFWPRP: 0.167; for RRIRVRPPRLPRPRPRPLAPPRP: 0.169. Regarding RRIRWRPPRLPRPRPRPLNNPRP, the “shrunken log2 fold change” value was -0.323.

On to RRIRIRPPRLPRPRPRPNRTPRP, for which the “shrunken log2 fold change” value is 0.101. Under RRIRSRPPRLPRPRPRPGSIPRP stands -0.0732; under RRIRRRPPRLPRPRPRPIVFPRP, 0.00406. With RRIRHRPPRLPRPRPRPDRFPRP, the “shrunken log2 fold change” value was -0.00476.

In the case of RRIRMRPPRLPRPRPRPKWTPRP, the “shrunken log2 fold change” value was 0.0304. Under RRIRTRPPRLPRPRPRPLWTPRP stands -0.0962; under RRIRDRPPRLPRPRPRPECPPRP, 0.0118; under RRIRFRPPRLPRPRPRPNLTPRP, -0.347. RRIRYRPPRLPRPRPRPNVQPRP: the “shrunken log2 fold change” value was -0.0298.

With RRIRVRPPRLPRPRPRPFPIPRP, the “shrunken log2 fold change” value is -0.39. In the case of RRIRYRPPRLPRPRPRPQILPRP, the “shrunken log2 fold change” value is -0.0395. Under RRIRYRPPRLPRPRPRPQARPRP stands -0.0547; under RRIRMRPPRLPRPRPRPEERPRP, 2.6. The same measure for RRIRDRPPRLPRPRPRPKVAPRP: 0.458; for RRIRDRPPRLPRPRPRPYFSPRP: -0.345. Under RRIRPRPPRLPRPRPRPGERPRP stands 0.1; under RRIRVRPPRLPRPRPRPDEAPRP, -0.0574. For RRIRGRPPRLPRPRPRPGFWPRP, the “shrunken log2 fold change” value is 0.581. Under RRIRPRPPRLPRPRPRPVSDPRP stands -0.0922; under RRIRQRPPRLPRPRPRPQHWPRP, 0.0488. For the sequence RRIRVRPPRLPRPRPRPDQMPRP, the “shrunken log2 fold change” value was found to be 0.0399. In the case of RRIRPRPPRLPRPRPRPCRRPRP, the “shrunken log2 fold change” value amounted to 0.117. For RRIRNRPPRLPRPRPRPAHFPRP, the “shrunken log2 fold change” value is 0.292. As for RRIRLRPPRLPRPRPRPCPGPRP, the “shrunken log2 fold change” value is -0.219. In the case of RRIRNRPPRLPRPRPRPAEDPRP, the “shrunken log2 fold change” value was determined as 0.0275. Under RRIRTRPPRLPRPRPRPTVVPRP stands 0.0732; under RRIRARPPRLPRPRPRPKIIPRP, -0.287; under RRIRSRPPRLPRPRPRPNANPRP, 0.0564. As for RRIRQRPPRLPRPRPRPTKNPRP, the “shrunken log2 fold change” value was 0.0334. The same measure for RRIRDRPPRLPRPRPRPCNLPRP: -0.0295; for RRIRERPPRLPRPRPRPMYLPRP: -1.99; for RRIRERPPRLPRPRPRPDMHPRP: -0.0138. For the sequence RRIRYRPPRLPRPRPRPDFYPRP, the “shrunken log2 fold change” value was -1.15. The same measure for RRIRNRPPRLPRPRPRPHSLPRP: -0.117. The same measure for RRIRCRPPRLPRPRPRPGPPPRP: 0.942.

As to RRIRERPPRLPRPRPRPRGRPRP, the “shrunken log2 fold change” value was determined as 0.358.

With RRIRHRPPRLPRPRPRPFLCPRP, the “shrunken log2 fold change” value was -0.172. Under RRIRFRPPRLPRPRPRPSQLPRP stands -0.462; under RRIRIRPPRLPRPRPRPCIGPRP, -0.632. Under RRIRCRPPRLPRPRPRPVMVPRP stands -0.211; under RRIRLRPPRLPRPRPRPNMTPRP, -0.0555; under RRIRPRPPRLPRPRPRPSGIPRP, -0.126. As for RRIRERPPRLPRPRPRPISNPRP, the “shrunken log2 fold change” value was -0.25.

Consider RRIRIRPPRLPRPRPRPVSRPRP, for which the “shrunken log2 fold change” value came out at 0.0446. Under RRIRCRPPRLPRPRPRPCHNPRP stands -0.734. Under RRIRRRPPRLPRPRPRPWTVPRP stands -0.00497; under RRIRPRPPRLPRPRPRPYYIPRP, -0.88. The same measure for RRIRKRPPRLPRPRPRPWTPPRP: 0.246; for RRIRGRPPRLPRPRPRPMDIPRP: 0.0445. Take RRIRGRPPRLPRPRPRPKGFPRP: the “shrunken log2 fold change” value is -0.0463.

As to RRIRCRPPRLPRPRPRPKTQPRP, the “shrunken log2 fold change” value came out at 0.0268. Under RRIRVRPPRLPRPRPRPVFHPRP stands -0.213; under RRIRCRPPRLPRPRPRPNCPPRP, -0.413.

Consider RRIRERPPRLPRPRPRPKKKPRP, for which the “shrunken log2 fold change” value is -0.0784.
